The numbers were not newly measured in patent US20100048679A1, “POLYNUCLEOTIDE THERAPY” (Bayhill Therapeutics, Inc., priority 2006, published 2010), which cites them from elsewhere.

Like-named read-outs stand apart in the source and are kept apart here.

The test system of this data set is patients.

natalizumab [Tysabri]: the Significant side effects result (MS patients, literature) is recorded as “decreases lymphocyte trafficking”.

Regarding `O=C1c2c(O)ccc(O)c2C(=O)c2c(NCCNCCO)ccc(NCCNCCO)c21` [mitoxantrone], where the note is “MS patients, literature”, the Significant side effects entry is listed as “myelosuppression with increased risk for infections”.

Take glatiramer acetate: the Significant side effects result (in vivo) is reported as “allergic reactions”.

In the case of interferon β, the Significant side effects entry (MS patients, literature) is recorded as “flu-like symptoms”.
